Our source for the Kd, binding result and IC50 values is patent US6207816, “High affinity oligonucleotide ligands to growth factors” (NeXstar Pharmaceuticals, Inc.).

The target of data set [1] is T1, KGF (hKGF) (Homo sapiens, UniProt P21781 P21781:32-194).
T1 sequence: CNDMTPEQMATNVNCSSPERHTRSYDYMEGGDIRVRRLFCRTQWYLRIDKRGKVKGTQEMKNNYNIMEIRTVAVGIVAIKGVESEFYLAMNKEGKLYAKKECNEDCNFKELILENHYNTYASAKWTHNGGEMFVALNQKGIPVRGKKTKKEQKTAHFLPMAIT
Nature of the data set: filter; DPBS 37 C. As to conditions: tags: Upstate Biotechnology.

The target of data set [2] is T2, PDGF-AB (Homo sapiens, UniProt P04085;P01127 P04085:87-211,P01127:82-190). Nature of the data set: filter; 20t binds within factor 2 of full length. As to conditions: tags: R&D Systems. The protocol:
(§1) D. Determination of the Apparent Equilibrium Dissociation Constants and the Dissociation Rate Constants The binding of ssDNA ligands at low concentrations to varying concentrations of PDGF was determined by the nitrocellulose filter binding method as described (Green et al., (1995) *Chemistry and Biology* 2: 683–695). The concentrations of PDGF stock solutions (in PBS) were determined from the absorbance readings at […] using the following $e280$ values calculated from the amino acid sequences (Gill, S. C., and von Hippel, P. H. (1989) *Anal. Biochem.* 182: 319–326): 19,500 M^-1cm^-1 for PDGF-AA, 15,700 M^-1cm^-1 for PDGF-AB and 11,800 M^-1cm^-1 for PDGF-BB. ssDNA for all binding experiments were purified by electrophoresis on 8% (>80 nucleotides) or 12% (<40 nucleotides) polyacrylamide/7 M urea gels. All ssDNA ligands were heated at 90° C. in binding buffer at high dilution ($\approx$1 nM) for 2 min and cooled on ice prior to frier dilution into the protein solution. The binding mixtures were typically incubated for 15 min at 37° C. before partitioning on nitrocellulose filters.

Data set [3] concerns the target T3, TGF-beta1 (Homo sapiens, UniProt P01137 P01137:279-390). Kind of data set: filter; n=3; KRH buffer 37 C; IC50 25 ± 14 nM in PAI-luciferase assay. As to conditions: tags: Genentech or R&D Systems; chain copies: 2.
Data set [4] addresses T3, TGF-beta1. Nature of the data set: cell_activity; second value 103 nM. As to conditions: tags: Genentech; chain copies: 2. The protocol:
(§2) Mink lung epithelial cells (MLEC) carrying the Pai1/luc construct were maintained in DME containing 10% fetal bovine serum and 400 μg/ml G418. MLEC-Pai1/luc cells were plated at 3.2×10^4 cells per well in a 96 well Falcon plate, in 100 μl of DME+10% fetal bovine serum overnight. Media was made from autoclaved water. The cells were washed three times (100 μl) in serum free DME plus Solution A (1:1). Solution A is 30 mM Hepes pH 7.6, 10 mM glucose, 3.0 mM KCl, 131 mM NaCl, 1.0 mM disodium phosphate. Samples (100 μl) were added in DME containing 20 mM Hepes pH 7.5, and 0.1% BSA (Fluka, radioimmunoassay grade). All samples were in triplicate. After six hours at 37° C. in a 5% CO_2 incubator the media was removed and cells were washed three times (100 μl each) in cold PBS. Lysis buffer (75 μl) (Analytical Luminescence Laboratory) was added and the plates incubated on ice for 20 min. The plates were sealed and frozen at −80° C. until assayed. Samples (25 μl) were assayed for luciferase activity with the Enhanced Luciferase Assay Kit from Analytical Luminescence Laboratory (San Diego, Calif., USA) according to the manufacturers instructions using the Berthold Microlumat LB96P luminometer.
(§3) Ligands tested for inhibition of TGFβ1 activity were tested at a minimum of five concentrations. […]

Data set [5] addresses T4, PDGF-BB (Homo sapiens, UniProt P01127 P01127:82-190). Kind of data set: competition; no effect on receptor binding or mitogenesis. As to conditions: tags: R&D Systems; chain copies: 2; stem-loop.
Description: After incubation for 24 h at 37° C., ^3H-radioactivity incorporated into DNA was determined using a β-counter.
Data set [6] addresses T2, PDGF-AB. Kind of data set: filter; thrombin aptamer control. As to conditions: tags: R&D Systems, E. coli; predicted stem-loop.
The target in data set [7] is T1, KGF (hKGF). Kind of data set: competition; PC-3 assay. As to conditions: tags: Upstate Biotechnology. The protocol: PC-3 cells were plated in 24-well plates at about 10^5 cells per well. Following growth for […], the cells were serum starved for 24 hours, washed two times with 500 µl of cold DPBS, and then incubated with 500 µl binding buffer (BB1; DPBS, 0.5 mM MgCl_2, 0.2% BSA. 0.02% sodium azide) containing various concentrations of ^125I-labeled KGF ranging from 0 to 0.8 nM. Following 3–3.5 hour incubation at 4° C., the binding mixes were aspirated and the well-adhered cells were washed two times with 1 ml BB1 and once with 1 ml BB1 supplemented with 0.5M NaCl. The remaining bound labeled hKGF was solubilized in 600 µl 0.5% SDS/0.1M NaOH and counted in a gamma counter (Beckmann). Nonspecific binding was determined in the presence of 100 fold molar excess of unlabeled hKGF. For competition assays, the labeled hKGF was kept constant at 0.3 nM, and varying concentrations of competitor molecules were included in the binding reactions ranging from 0–1,000 nM. Binding curves were fitted to the equation: […]
A subset of these ligands was tested on the NIH3T3/FGFR-2. In determining the Ki values, it was assumed that 3T3 cells have 500,000 binding sites per cell and PC-3 cells have 5,000 binding sites per cell.

The target of data set [8] is T3, TGF-beta1. Kind of data set: cell_activity; second value 298 nM. As to conditions: tags: Genentech; chain copies: 2. The protocol: as §2, §3
The target in data set [9] is T4, PDGF-BB. Nature of the data set: competition; 125I-PDGF-BB binding to PDGF alpha-receptor on PAE cells. As to conditions: tags: R&D Systems; chain copies: 2; three-way junction.
Data set [10] addresses PDGF-AA (Homo sapiens, UniProt P04085 P04085:87-211). Kind of data set: filter; 37 C; comparable to random DNA. As to conditions: tags: R&D Systems, E. coli, long form A-chain; chain copies: 2; label: 5'-32P; three-way helix junction. The protocol: as §1
(§4) The fraction of ^32P 5' end-labeled DNA ligands bound to varying concentrations of PDGF was determined by the nitrocellulose filter binding method. Minimal ligands tested were 20t (○), 36t (Δ), and 41t (□). […]

Data set [11] has as its target T2, PDGF-AB. Nature of the data set: filter; 37 C, PBSM + 0.01% HSA; high affinity component. As to conditions: tags: R&D Systems, E. coli; label: 5'-32P; three-way helix junction. The protocol: as §1, §4
The target in data set [12] is T4, PDGF-BB. The description is as above. As to conditions: tags: R&D Systems, E. coli; chain copies: 2; label: 5'-32P; three-way helix junction. The protocol:
as §1, §4

Data set [13] concerns the target T2, PDGF-AB. Kind of data set: filter; 41t binds within factor 2 of full length. As to conditions: tags: R&D Systems. The protocol:
as §1

Data set [14] has as its target T3, TGF-beta1. Kind of data set: filter; boundary experiment. As to conditions: tags: Genentech; chain copies: 2.

T3 sequence (P01137 279-390, one chain of several): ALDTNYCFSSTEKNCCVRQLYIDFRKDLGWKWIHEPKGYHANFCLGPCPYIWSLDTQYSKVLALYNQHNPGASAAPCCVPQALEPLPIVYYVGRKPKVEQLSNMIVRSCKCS
T2 sequence (P01127 82-190, chain 2 of 2, other chains not shown): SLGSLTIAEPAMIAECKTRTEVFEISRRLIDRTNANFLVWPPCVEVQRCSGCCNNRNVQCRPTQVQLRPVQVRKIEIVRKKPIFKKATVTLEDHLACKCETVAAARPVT
T4 sequence (P01127 82-190, one chain of several): as the sequence (P01127 82-190, chain 2 of 2, other chains not shown) above

B1: 47N (ssRNA)
RNA: GGGAGGACGAUGCGGGAAGGGUAGGAAGGUCAAGAGGAAACAGCGCUUCGGGGGUGCAGACGACUCGCCCGA
modifications: 2'-NH2 pyrimidines
As for B1, the Kd – broadly, the equilibrium constant for the complex coming apart – in [1] worked out at 1.76 nM.

B2: ligand 20 full length (ssDNA)
DNA: ATCCGCCTGATTAGCGATACTATGGGAGGGCGCGTTCTTCGTGGTTACTTTTAGTCCCGACTTGAGCAAAATCACCTGCAGGGG
Regarding B2, in [2], the binding result is “binds”.

B3: lib3-13 (ssRNA)
RNA: GGGGGAGAACGCGGAUCCGAGCAAUCCCAGGCGCAUAGCUUCCGAGUAGACAGGAGGGAGGGGUGGAUGUGGCGUCUACUCGGUGUCGUGAAGCUUCGCUCUAGAUCUCCCUUUAGUGAGGGUUA
modifications: 2'-NH2 pyrimidines
Molecule B3 showed a dissociation constant Kd in data set [3] of 0.83 nM.

B4: lib2-6-1 (ssRNA)
RNA: GGGGGAGAACGCGGAUCCUGUCUCCACCGCCGAUACUGGGGUUCCUGGGGCCCCUCCAUGCAGGAGGGGGGUGGUUCGGAGAAAGCUUCGCUCUAGAUCUCCCUUUAGUGAGGGUUA
modifications: 2'-NH2 U, 2'-F C
Turning to B4, in [4], the IC50 – broadly, the point on the concentration scale where inhibition reaches its midpoint – is 112 nM.
CAGTCCGTGGTAGGGCAGGTTGGGGTGACTTCGTGGAA (ssDNA, 3'-3' inverted T) [T39]: the binding result in [5] is given as “no binding”. Also, in data set [6], the dissociation constant (Kd) is 230 nM.

B5: 10F (ssRNA)
RNA: GGGAGGACGAUGCGGGACCAGAUGGCGGAUUUUUCAGCAAUCCUCCCCCCGCUGCCCAGACGACUCGCCCGA
modifications: 2'-F pyrimidines
Consider B5, for which binding in [1] was put at a Kd of 0.47 nM.

B6: 10F (K10F) (ssRNA)
RNA: GGGAGGACGAUGCGGGACCAGAUGGCGGAUUUUUCAGCAAUCCUCCCCCCGCUGCCCAGACGACUCGCCCGA
modifications: 2'-F pyrimidines
In [7], B6 yielded an IC50 of 30 nM.

B7: 4N (ssRNA)
RNA: GGGAGGACGAUGCGGGUGGUGAAGAGGUACCGGAAUUGCUAAAGAUACCACGGCCCAGACGACUCGCCCGA
modifications: 2'-NH2 pyrimidines
On to B7, for which, in [1], the Kd turned out to be 0.75 nM.

B8: 4N (K4N) (ssRNA)
RNA: GGGAGGACGAUGCGGGUGGUGAAGAGGUACCGGAAUUGCUAAAGAUACCACGGCCCAGACGACUCGCCCGA
modifications: 2'-NH2 pyrimidines
Molecule B8 showed an IC50 in data set [7] of 70 nM.

B9: lib2-6-1-81 (ssRNA)
RNA: GGGGGAGAACGCGGAUCCUGUCUCCACCGCCGAUACUGGGGUUCCUGGGGCCCCUCCAUGCAGGAGGGGGGUGGUUCGGAG
modifications: 2'-NH2 U, 2'-F C
Turning to B9, the midpoint of inhibition in data set [8], the IC50, lay at 201 nM.
In turn, TGGGAGGGCGCGTTCTTCGTGGTTACTTTTAGTCCCG (ssDNA, 3'-3' inverted T) [20t] came in with an IC50 in data set [9] of roughly 1 nM. Also, the Kd in data set [10] was found to be 47 nM; in data set [11] it was 0.147 nM; in data set [12], 0.127 nM.

B10: ligand 41 full length (ssDNA)
DNA: ATCCGCCTGATTAGCGATACTCAGGGCACTGCAAGCAATTGTGGTCCCAATGGGCTGAGTACTTGAGCAAAATCACCTGCAGGGG
Turning to B10, the binding result in data set [13] was “binds”.

B11: lib3-13-(38-123) (ssRNA)
RNA: GCUUCCGAGUAGACAGGAGGGAGGGGUGGAUGUGGCGUCUACUCGGUGUCGUGAAGCUUCGCUCUAGAUCUCCCUUUAGUGAGGGU
On to B11, for which the binding result in [14] is “binds”.

B12: lib3-13-79 (ssRNA)
RNA: GGGGGAGAACGCGGAUCCGAGCAAUCCCAGGCGCAUAGCUUCCGAGUAGACAGGAGGGAGGGGUGGAUGUGGCGUCUAC
For B12, the binding result in [14] was “binds”.
